From patent US20230037815A1 (CULLINAN THERAPEUTICS, published 2023) come the findings set out here.

What is called Kd is the concentration at which binding is half-saturated. Low readings indicate a tighter complex, high ones a looser complex. Usually koff stands for the rate constant with which the complex falls apart. A lower koff goes with a long-lived complex.

In one assay the target is T1, human CD19 on CHO cells (human, UniProt P15391 20-556).
T1 construct: whole, on cells; also called Cells Expressing Human CD19; CHO cells overexpressing the antigen
T1 sequence (looked up): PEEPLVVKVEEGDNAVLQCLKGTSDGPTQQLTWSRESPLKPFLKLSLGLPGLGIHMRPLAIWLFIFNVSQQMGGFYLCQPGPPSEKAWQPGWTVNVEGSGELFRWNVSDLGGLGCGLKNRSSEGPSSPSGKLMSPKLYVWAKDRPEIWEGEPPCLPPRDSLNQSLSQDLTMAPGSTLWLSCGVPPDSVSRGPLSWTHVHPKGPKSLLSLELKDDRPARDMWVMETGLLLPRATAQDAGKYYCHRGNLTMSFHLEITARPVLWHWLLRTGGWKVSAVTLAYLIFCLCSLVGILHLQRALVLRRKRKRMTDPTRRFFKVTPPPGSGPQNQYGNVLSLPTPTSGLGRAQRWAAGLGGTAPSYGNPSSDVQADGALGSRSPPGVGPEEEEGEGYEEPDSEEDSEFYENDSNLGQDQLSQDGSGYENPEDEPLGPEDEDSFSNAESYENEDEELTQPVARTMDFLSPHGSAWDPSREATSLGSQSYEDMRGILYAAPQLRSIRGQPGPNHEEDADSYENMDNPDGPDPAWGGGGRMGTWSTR
In words: flow cytometry, CHO cells, 100 nM IgG. How it is done:
The binding affinity of the antibodies to CD19 expressed on the cell surface was also measured. Briefly, approximately 100,000 Chinese hamster overy (CHO) cells overexpressing the antigen were washed with wash buffer and incubated with 100 μl 100 nM IgG for 15 minutes at room temperature. Cells were then washed twice with wash buffer and incubated with 100 μl of 1:100 Human-PE for 15 minutes on ice. Cells were then washed twice more with wash buffer and analyzed on a FACS Canto II analyzer (BD Biosciences).

Another assay deals with T2, human CD19 (human, UniProt P15391 20-291, biotinylated in the Biacore assay of Table 11).
T2 construct: also called isolated CD19; Human CD19 Protein
T2 sequence (looked up): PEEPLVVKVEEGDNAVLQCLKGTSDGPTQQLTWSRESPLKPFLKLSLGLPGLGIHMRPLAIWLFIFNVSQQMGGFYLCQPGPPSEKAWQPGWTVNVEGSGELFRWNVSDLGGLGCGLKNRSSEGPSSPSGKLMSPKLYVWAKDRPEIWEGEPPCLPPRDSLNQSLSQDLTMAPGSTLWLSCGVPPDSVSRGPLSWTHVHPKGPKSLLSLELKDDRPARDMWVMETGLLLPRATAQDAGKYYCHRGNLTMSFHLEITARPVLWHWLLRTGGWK
The assay is described as follows: Octet HTX (ForteBio), IgG on AHC sensor, 1:1 fit. How it is done: The binding affinity of the antibodies to isolated CD19 was measured by […] using a ForteBio Octet HTX system as previously described (see, e.g., Estep et al, High throughput solution-based measurement of antibody-antigen affinity and epitope binning. Mabs 5(2), 270-278 (2013)). Briefly, ForteBio affinity measurements were performed by loading IgGs on-line onto anti-hIgG Fc Capture (AHC) sensors. The sensors were equilibrated off-line in assay buffer for 30 minutes and then monitored on-line for 60 seconds for baseline establishment. The sensors with loaded IgGs were exposed to 100 nM […] for 3 minutes, and subsequently transferred to assay buffer for 3 minutes for off-rate measurement. All kinetics were analyzed using the 1:1 binding model.
A general note: Biolayer interferometry detects binding as a change in optical thickness at a sensor tip.

B1: CNG-CD19-1 (antibody, V domains shown)
VH: QVQLVQSGAEVKKPGASVKVSCKASGYTFTDYIMHWVRQAPGQGLEWMGYINPYNDGSKYTEKFQGRVTMTSDTSISTAYMELSRLRSDDTAVYYCARGTYYYGPQLFDYWGQGTTVTVSS
VL: DIVMTQTPLSLSVTPGQPASISCKSSQSLETSTGTTYLNWYLQKPGQSPQLLIYRVSKRFSGVPDRFSGSGSGTDFTLKISRVEAEDVGVYYCLQLLEDPYTFGQGTKLEIK
notes: tested as IgG; also called parental antibody
Turning to B1, the “Binding to Cells Expressing Human CD19 (FOB)” value (“Binding” for short) with human CD19 on CHO cells amounted to 267 FOB. In the assay with human CD19, this molecule gave a Kd of 0.346 nM and a koff of 0.000114 s⁻¹.

B2: CNG-CD19-103 (antibody, V domains shown)
VH: QVQLVQSGAEVKKPGASVKVSCKASGYTFTDYIMHWVRQAPGQGLEWMGYINPYNDGSKYTEKFQGRVTMTSDTSISTAYMELSRLRSDDTAVYYCARGTYYYGPQLFDYWGQGTTVTVSS
VL: DIVMTQTPLSLSVTPGQPASISCKSSQSLETATGTTYLNWYLQKPGQSPQLLIYRVSRRFSGVPDRFSGSGSGTDFTLKISRVEAEDVGVYYCLQLLEDPYSFGQGTKLEIK
notes: tested as IgG produced in yeast
As for B2, the “Binding” value with human CD19 on CHO cells stood at 286 FOB. In the assay with human CD19, this molecule returned a Kd of 0.106 nM and a koff of 4e-05 s⁻¹.

B3: CNG-CD19-104 (antibody, V domains shown)
VH: QVQLVQSGAEVKKPGASVKVSCKASGYDFTDYIVHWVRQAPGQGLEWMGYINPYNDGSKYTEKFQGRVTMTSDTSISTAYMELSRLRSDDTAVYYCARGTYYYGPELFDYWGQGTTVTVSS
VL: DIVMTQTPLSLSVTPGQPASISCKSGQSLETSTGTTYLNWYLQKPGQSPQLLIYRVSRRFSGVPDRFSGSGSGTDFTLKISRVEAEDVGVYYCLQLLEDPYTFGQGTKLEIK
notes: as for B2
With B3, in the assay with human CD19 on CHO cells, the “Binding” value came out at 327 FOB. In addition, in the assay with human CD19, binding was characterised by a dissociation constant (Kd) of 0.144 nM and the off-rate constant (koff) is 6e-05 s⁻¹.

B4: CNG-CD19-106 (antibody, V domains shown)
VH: QVQLVQSGAEVKKPGASVKVSCKASGYDFTDYIMHWVRQAPGQGLEWMGYINPYNDGSEYTEKFQGRVTMTSDTSISTAYMELSRLRSDDTAVYYCARGTYYYGPQLFDYWGQGTTVTVSS
VL: DIVMTQTPLSLSVTPGQPASISCKSSQSLETATGTTYLNWYLQKPGQSPQLLIYRVSRRFSGVPDRFSGSGSGTDFTLKISRVEAEDVGVYYCLQLLEDPYTFGQGTKLEIK
notes: as for B2
As for B4, the “Binding” value with human CD19 on CHO cells turned out to be 354 FOB. For the same molecule, in the assay with human CD19, the dissociation constant Kd came to 0.189 nM and the koff was determined as 0.000114 s⁻¹.

B5: CNG-CD19-109 (antibody, V domains shown)
VH: QVQLVQSGAEVKKPGASVKVSCKASGYDFTDYIVHWVRQAPGQGLEWMGYINPYNDGSLYTEKFQGRVTMTSDTSISTAYMELSRLRSDDTAVYYCARGTYYYGPQLFDYWGQGTTVTVSS
VL: DIVMTQTPLSLSVTPGQPASISCKSSQQLETSTGTTYLNWYLQKPGQSPQLLIYRASKRFSGVPDRFSGSGSGTDFTLKISRVEAEDVGVYYCLQLLEDPYSFGQGTKLEIK
notes: as for B2
In the case of B5, the “Binding” value with human CD19 on CHO cells stood at 334 FOB. In the assay with human CD19, this molecule displayed a dissociation constant (Kd) of 0.144 nM and a koff of 4e-05 s⁻¹.

B6: CNG-CD19-102 (antibody, V domains shown)
VH: QVQLVQSGAEVKKPGASVKVSCKASGYEFTDYIMHWVRQAPGQGLEWMGYINPYNDGSKYTEKFQPRVTMTSDTSISTAYMELSRLRSDDTAVYYCARGTYYYGPQLFDYWGQGTTVTVSS
VL: DIVMTQTPLSLSVTPGQPASISCKSSQSLETSTGTTYLNWYLQKPGQSPQLLIYRVSKRFSGVPDRFSGSGSGTDFTLKISRVEAEDVGVYYCLQLLEDPYTFGQGTKLEIK
notes: as for B2
With B6, the “Binding” value with human CD19 on CHO cells came to 258 FOB. In the assay with human CD19, this molecule gave a Kd of 0.298 nM and a koff of 9.12e-05 s⁻¹.

B7: CNG-CD19-105 (antibody, V domains shown)
VH: QVQLVQSGAEVKKPGASVKVSCKASGYEFTDYIMHWVRQAPGQGLEWMGYINPYNDGSKYTEKFEGRVTMTSDTSISTAYMELSRLRSDDTAVYYCARGTYYYGPELFDYWGQGTTVTVSS
VL: DIVMTQTPLSLSVTPGQPASISCKSSQRLETSTGTTYLNWYLQKPGQSPQLLIYRVSRRFSGVPDRFSGSGSGTDFTLKISRVEAEDVGVYYCLQLLEDPPTFGQGTKLEIK
notes: as for B2
Regarding B7, the “Binding” value in the assay with human CD19 on CHO cells turned out to be 351 FOB. In the assay with human CD19, this molecule gave a Kd of 0.164 nM and a koff of 8.28e-05 s⁻¹.

B8: CNG-CD19-108 (antibody, V domains shown)
VH: QVQLVQSGAEVKKPGASVKVSCKASGYDFTDYIVHWVRQAPGQGLEWMGYINPYNDGSKYTEKFQGRVTMTSDTSISTAYMELSRLRSDDTAVYYCARGTYYYGPQLFDYWGQGTTVTVSS
VL: DIVMTQTPLSLSVTPGQPASISCKSSQSLETVTGTTYLNWYLQKPGQSPQLLIYRVSKRFSGVPDRFSGSGSGTDFTLKISRVEAEDVGVYYCLQLLEDPPTFGQGTKLEIK
notes: as for B2
In the case of B8, the “Binding” value with human CD19 on CHO cells was determined as 319 FOB. In the assay with human CD19, this molecule yielded a Kd of 0.164 nM and a dissociation rate constant (koff) of 5.26e-05 s⁻¹.

B9: CNG-CD19-101 (antibody, V domains shown)
VH: QVQLVQSGAEVKKPGASVKVSCKASGYDFTDYIMHWVRQAPGQGLEWMGYINPYNDGSKYTDKFQERVTMTSDTSISTAYMELSRLRSDDTAVYYCARGTYYYGPELFDYWGQGTTVTVSS
VL: DIVMTQTPLSLSVTPGQPASISCKSSQSLETTTGTTYLNWYLQKPGQSPQLLIYRASKRFSGVPDRFSGSGSGTDFTLKISRVEAEDVGVYYCLQLLEDPYTFGQGTKLEIK
notes: as for B2
For B9, the “Binding” value in the assay with human CD19 on CHO cells stood at 296 FOB. For the same molecule, in the assay with human CD19, the affinity, expressed as Kd, was 0.144 nM and the off-rate constant (koff) came to 5.72e-05 s⁻¹.

B10: CNG-CD19-110 (antibody, V domains shown)
VH: QVQLVQSGAEVKKPGASVKVSCKASGYTFTDYIMHWVRQAPGQGLEWMGYINPYNDGSKYTEKFQGRVTMTSDTSISTAYMELSRLRSDDTAVYYCARGTYYYGPQLFDYWGQGTTVTVSS
VL: DIVMTQTPLSLSVTPGQPASISCKSSQSLETSTGTTYLNWYLQKPGQSPQLLIYRSSKRFSGVPDRFSGSGSGTDFTLKISRVEAEDVGVYYCLQLLEDPPTFGQGTKLEIK
notes: as for B2
Consider B10, for which the “Binding” value in the assay with human CD19 on CHO cells is 293 FOB. In addition, in the assay with human CD19, the equilibrium dissociation constant (Kd) was 0.353 nM and the koff was 0.000121 s⁻¹.

B11: CNG-CD19-107 (antibody, V domains shown)
VH: QVQLVQSGAEVKKPGASVKVSCKASGYDFTDYIMHWVRQAPGQGLEWMGYINPYNDGSKYTEKFQHRVTMTSDTSISTAYMELSRLRSDDTAVYYCARGTYYYGPQLFDYWGQGTTVTVSS
VL: DIVMTQTPLSLSVTPGQPASISCKSSQSLETSTGTTYLNWYLQKPGQSPQLLIYRVSRRFSGVPDRFSGSGSGTDFTLKISRVEAEDVGVYYCLQLLEDPYTFGQGTKLEIK
notes: as for B2
For the molecule B11, the “Binding” value with human CD19 on CHO cells is 315 FOB. In addition, in the assay with human CD19, the equilibrium dissociation constant (Kd) is 0.277 nM and the koff came to 5.71e-05 s⁻¹.

B12: CNG-CD19-7 (antibody, V domains shown)
VH: QVQLQESGPGLVKPSQTLSLTCTVSGGSISTSGMGVGWIRQHPGKGLEWIGHIWWDDDKRYNPALKSRVTISVDTSKNQFSLKLSSVTAADTAVYYCARMELWSYYFDYWGQGTLVTVSS
VL: EIVLTQSPATLSLSPGERATLSCSASSSVSYMHWYQQKPGQAPRLLIYDTSKLASGIPARFSGSGSGTDFTLTISSLEPEDFAVYYCFQGSVYPFTFGQGTKLEIK
notes: as for B1
As for B12, the “Binding” value with human CD19 on CHO cells stood at 71 FOB. In the assay with human CD19, this molecule yielded a Kd of 2.25 nM and a koff of 0.000396 s⁻¹.

B13: CNG-CD19-701 (antibody, V domains shown)
VH: QVQLQESGPGLVKPSQTLSLTCTVSGGSISTSTMGVGWIRQHPGKGLEWIGFIWWDDDKRYNPNLKSRVTMSVDTSKNQFSLKLSSVTAADTAVYYCARMELWSYYFDYWGQGTLVTVSS
VL: EIVLTQSPATLSLSPGERATLSCSASSSVGYMHWYQQKPGQAPRLLIYDTSKLASGIPARFSGSGSGTDFTLTISSLEPEDFAVYYCFQGSVYPFTFGQGTKLEIK
notes: as for B2
In the case of B13, in the assay with human CD19 on CHO cells, the “Binding” value stood at 195 FOB. In the assay with human CD19, the dissociation constant (Kd) was found to be 0.187 nM and the dissociation rate constant (koff) was 7.05e-05 s⁻¹.

B14: CNG-CD19-702 (antibody, V domains shown)
VH: QVQLQESGPGLVKPSQTLSLTCTVSGGSTSTSGMGVSWIRQHPGKGLEWIGHIWWDDDKRYNPVLKSRVTISVDTSKNQFSLKLSSVTAADTAVYYCARMELWSYYFDPWGQGTLVTVSS
VL: EIVLTQSPATLSLSPGERATLSCSASSSVSYMHWYQQKPGQAPRLLIYDTSKLASGIPARFSGSGSGTDFTLTISSLEPEDFAVYYCFQGSVYPFTFGQGTKLEIK
notes: as for B2
Take B14: the “Binding” value with human CD19 on CHO cells turned out to be 180 FOB. In the assay with human CD19, this molecule registered a dissociation constant Kd of 0.5 nM and a koff of 0.000175 s⁻¹.
